Literature values, collected in PMC4344624.

Target: VPg (Turnip mosaic virus) (UniProt P89509)
Sequence of UniProt P89509 (P89509 1925-2116): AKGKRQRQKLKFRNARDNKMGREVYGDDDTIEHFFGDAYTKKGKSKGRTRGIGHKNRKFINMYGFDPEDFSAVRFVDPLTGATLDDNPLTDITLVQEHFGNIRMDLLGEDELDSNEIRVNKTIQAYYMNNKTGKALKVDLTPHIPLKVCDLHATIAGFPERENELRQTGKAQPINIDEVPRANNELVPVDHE

For “Pokeweed antiviral protein (from UniProt P10297)”, the Kd is given as 0.029 µM.
